The text below walks through data of patent US20240327455A1, “HIGH-AFFINITY SUPRAMOLECULAR POLYMERS FOR BINDING-TRIGGERED ANTIBODY PRECIPITATION AND PURIFICATION” (The Johns Hopkins University, priority 2021, published 2024).

For data set [1], the target named is T1, pure mAb1 (Homo sapiens, UniProt P01857).
T1 construct: host or cells: CHO is stated only for the clarified harvest
In words: Sequential precipitation and mAb elution using IF solutions. How it is done:
Sequential Precipitation and mAb Elution Using IF Solutions. Three IF stock solutions. IF1 (2.5 mM filler, 250 μM O16). IF2 (2.5 mM filler, 750 μM O16), and IF3 (2.5 mM filler. 200 μM O16), were prepared one day before the precipitation experiment. Pure mAb1 from a concentrated solution (448 μM, 64.5 g/L) was added into 100 uL IF1 and 100 uL IF2 to reach a desired final concentration of 40 μM and 80 μM, respectively. After a 4-hour incubation, the samples were then centrifuged at 15000 rpm for 15 minutes and the supernatant was transferred to 100 uL IF3 for another 4-hour incubation and subsequent centrifugation. 200 μL PBS and 400 μL elution buffer (40 mM sodium acetate. pH 3.7) were then used to wash and resuspend the precipitates from the two precipitation steps. The supernatant from each precipitation step, wash step, and elution step were analyzed by ProA-HPLC (POROS™ A 20 μm Column, Stainless Steel, 2.1×30 mm, 0.1 mL) to determine mAb concentration.

In data set [2] the target is T1, pure mAb1. In words: mAb precipitation experiment with co-assembled IFs. The note with it: 40 μM mAb1, 2.5 mM filler.
The nature of data set [3]: Self-assembly and TEM imaging (filament diameter). The class given is physicochemical. As to conditions: self-assembled in PBS pH 7.4; mean±SD (n=30). Here is the method: Self-Assembly, Co-Assembly, and TEM Imaging. For self-assembly, filler or ligand molecules were dissolved in PBS (20 mM sodium phosphate, 150 mM sodium chloride, pH 7.4) to reach a final concentration of 2.5 mM or 400 μM, respectively, and aged for 24 hours at room temperature. To construct co-assembled IFs, filler and ligand molecules were pretreated with hexafluoroisopropanol (HFIP) to eliminate any pre-existing nanostructures that could be possibly formed during the synthesis and purification process. After HFIP evaporation, filler and ligand molecules were dissolved in PBS (20 mM sodium phosphate, 150 mM sodium chloride, pH 7.4) to reach desired concentrations and aged for 24 hours at room temperature. 10 μl stock of each sample solution was then spotted on carbon film coated copper grids with 400 square mesh (Electron Microscopy Sciences, Hatfield, PA, USA) and the excess was removed with filter paper to leave a thin film of sample on the grid. After letting the sample dry for 5 minutes, 10 μl 2% uranyl acetate was added to the sample grid, and the excess was removed after 30 seconds. All samples were dried for at least three hours before imaging. Bright-field TEM imaging was performed on a FEI Tecnai 12 TWIN Transmission Electron Microscope and all TEM images were required by a SIS Megaview III wide-angle CCD camera.

The next data set deals with T2, mAb1 (Homo sapiens, UniProt P01857).
T2 construct: host or cells: CHO is stated only for the clarified harvest
In words: Turbidity of mAb1-IF mixture (absorbance at 350 nm). The note with it: 40 μM mAb1, 2.5 mM filler, 250 μM O16, absorbance at 350 nm.

The target of data set [4] is T1, pure mAb1. In words: Sequential precipitation of high mAb titers using lyophilized IFs. The note with it: lyophilized IFs (2.5 mM filler, 400 μM O16); for mAb precipitation yield after six precipitation steps: no salt. Here is the method:
Sequential Precipitation of High mAb Titers Using Lyophilized IFs. Six lyophilized IF stock powders (IF4-IF9) were prepared such that upon dissolution in 100 μL, the concentrations of the filler and O16 would be 2.5 mM and 400 μM, respectively. Lyophilized IF powders were prepared one day before the precipitation experiment. The IFs were allowed to co-assemble in water for 24 hours prior to lyophilization. Pure mAb1 from concentrated stock solutions of either (146 μM, 21 g/L) or (215 μM, 31 g/L) was added to the lyophilized IF4. After a 1-hour incubation, the samples were centrifuged at 15000 rpm for 15 minutes. Following centrifugation, the volume of supernatant was measured and fresh PBS was added until a final supernatant volume of 100 μL was reached. The 100 μL supernatant following the first precipitation step was then added to the next lyophilized IF stock powder (IF5) and allowed to incubate for another hour. This process of incubation, centrifugation, and supernatant transfer was repeated until all six lyophilized IFs (IF4-IF9) had been used for mAb precipitation. The supernatants after the first, third, and sixth precipitation steps were analyzed using ProA-HPLC to measure the cumulative amount of mAbs remaining throughout the precipitation process.

In data set [5] the target is T1, pure mAb1. As to the kind of experiment: mAb precipitation experiment with co-assembled IFs. As to conditions: for mAb precipitation yield at optimal O16 concentration: 2.5 mM filler. Here is the method:
mAb Precipitation Experiment. IF stock solutions at desired filler and ligand concentrations were prepared one day before the precipitation experiment. In experimental groups, pure mAb1 from a concentrated solution (448 μM, 64.5 g/L) was then added into 100 μL IF solutions to reach a desired final concentration and incubated for 30 minutes at room temperature. The solution was then centrifuged at 15000 rpm for 15 minutes. For the 1M salt group, ammonium sulfate was added to the mAb-IF mixtures to reach a final concentration of 1M and incubated for another 30 minutes before centrifugation. The supernatant was taken out and analyzed by ProA-HPLC (POROS™ A 20 μm Column, Stainless Steel, 2.1×30 mm, 0.1 mL) to determine the protein concentrations. The precipitated amount of each species was calculated by subtracting the amount in the supernatant from the amount added. The precipitation yield was calculated by dividing […].

The target of data set [6] is T3, mAb1 in clarified CHO cell culture harvest (Homo sapiens, UniProt P01857).
T3 construct: host or cells: Chinese hamster ovary (CHO) cells; harvest clarified by depth filtration
As to the kind of experiment: Purification of mAb1 from clarified cell culture harvest. The note with it: sequential precipitation, no salt. Here is the method:
Purification of mAb1 from Clarified Cell Culture Harvest. mAb1 at clarified bulk state were incubated with optimized IFs (100 μL) at a concentration of 40 μM or 80 μM for 30 minutes. Same procedures were performed to precipitate mAb1 and obtain the centrifuged pellets. The pellets were then resuspended in […] (400 μL, 40 mM sodium acetate. pH 3.7) and transferred to a dialysis tube (Pur-A-Lyzer Maxi, 50 kDa cut-off molecular weight. Sigma-Aldrich. St. Louis, MO. USA). The resuspended solution was then dialyzed against 40 mM sodium acetate (1 L) at pH 3.7 for 24 hours with dialysis buffer replaced three times. The protein, filler, and ligand concentrations were determined by ProA-HPLC and RP-UPLC.

Data set [7] can be described thus: CMC measurement with Nile Red. The note with it: ligand molecules in PBS. The class given is physicochemical. How it is done: CMC measurement. The CMCs of the ligand molecules in PBS were determined using Nile Red, a hydrophobic dye that undergoes changes in both fluorescence intensity and emission wavelength (a blue-shift) upon partition into the hydrophobic domains of supramolecular assemblies. Nile Red was initially dissolved in acetone at 20 μM and 10 μl aliquots were loaded into several centrifuge tubes. After the acetone evaporated under room temperature. 500 μl fresh ligand solutions in PBS at various concentrations were added into the centrifuge tubes containing dry Nile Red and aged overnight for assembly. Fluorescent spectra of Nile Red were then monitored by a Fluorolog fluorometer (Jobin Yvon, Edison, NJ, USA) with fixed excitation wavelength at 560 nm; emission spectra were monitored at 580-720 nm. The ratio of the emission intensity at 635 nm (emission maximum of Nile red in a hydrophobic environment) to that at 660 nm (emission maximum of Nile red in an aqueous environment) was then plotted against the tested concentrations to obtain a transition curve, and the CMC value was determined by the intersection of the two fitting lines.

Data set [8] can be described thus: Solubility limit of filler molecule in PBS. Format: physicochemical. As to conditions: in PBS (pH 7.4).

In brackets after ≈: the same amount, converted by molar mass. Peptide text beside a SMILES is read from it. * marks the point of attachment. Lauroyl = CCCCCCCCCCCC(=O)* Bounds are passed on as bounds.

T1 sequence (P01857 1-330 isoform P01857-1): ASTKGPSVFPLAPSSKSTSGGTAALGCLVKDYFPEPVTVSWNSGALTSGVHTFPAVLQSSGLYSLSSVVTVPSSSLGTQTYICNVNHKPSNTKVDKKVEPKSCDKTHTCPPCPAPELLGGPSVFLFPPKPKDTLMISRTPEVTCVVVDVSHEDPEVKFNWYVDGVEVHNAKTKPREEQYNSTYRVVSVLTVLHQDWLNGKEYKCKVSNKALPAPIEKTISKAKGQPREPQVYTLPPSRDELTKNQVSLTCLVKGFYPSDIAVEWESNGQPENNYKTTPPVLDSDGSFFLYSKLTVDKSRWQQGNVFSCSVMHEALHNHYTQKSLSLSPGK
T3 sequence (P01857 1-330 isoform P01857-1): as above
T2 sequence (P01857 1-330 isoform P01857-1): as above

“O16: ligand molecule C12-VVKK[Linker]Z33, linker OEG16”: the “mAb1 precipitated in first precipitation” value with pure mAb1 [1] (40 μM pure mAb1, IFs with 250 μM O16, no salt) is recorded as “More than 82%”; in the data set with pure mAb1 [1] (80 μM pure mAb1, IFs with 750 μM O16, no salt) it was “More than 82%”. In addition, the elution yield is given as ~88% with pure mAb1 [1] (40 μM pure mAb1, elution buffer 40 mM sodium acetate pH 3.7) and ~88% with pure mAb1 [1] (80 μM pure mAb1, elution buffer 40 mM sodium acetate pH 3.7). In addition, the “final precipitation yield after two sequential precipitations” value with pure mAb1 [1] (40 μM pure mAb1, second step IFs with 200 μM O16, no salt) is “greater than 97%”; with pure mAb1 [1] (80 μM pure mAb1, second step IFs with 200 μM O16, no salt) it was “greater than 97%”. Besides, the mAb precipitation yield with pure mAb1 [2] (250 μM O16, binding time 2 hours) is 88%; in the data set with pure mAb1 [2] (250 μM O16, binding time 24 hours) it was 92%; with pure mAb1 [5] (40 μM mAb1, 2.5 mM filler, 250 μM O16, binding time 30 minutes), 83%; with pure mAb1 [5] (40 μM mAb1, optimal IFs (2.5 mM filler, 250 μM O16), 1 M salt), “More than 99%”; in the data set with pure mAb1 [5] (40 μM mAb1, optimal IFs (2.5 mM filler, 250 μM O16), no salt), 88%. Further, in data set [3], the “diameter of self-assembled filamentous structures (TEM)” value (shortened to “diameter”) worked out at 14.9±1.3 nm. In the data set with mAb1, the “time to turbidity plateau” value is ≤ 30 min. Moreover, the “mAb precipitation yield after six precipitation steps” value with pure mAb1 [4] (21 mg/mL pure mAb) came out at 96%; in the data set with pure mAb1 [4] (31 mg/ml pure mAb) it was 98%. Besides, the “mAb precipitation yield after first precipitation step” value with pure mAb1 [4] (21 or 31 mg/mL mAb) was “around 20%”. Also, the “mAb precipitation yield after three precipitation steps” value in the data set with pure mAb1 [4] (21 or 31 mg/mL mAb) is ~80%. Moreover, the “mAb precipitation yield at optimal O16 concentration” value with pure mAb1 [5] (40 μM mAb1, no salt) was “around 85%”; with pure mAb1 [5] (80 μM mAb1, no salt) it was “around 85%”; with pure mAb1 [5] (133 μM mAb1, no salt), “about 65%”. In addition, the “O16 concentration giving the best mAb precipitation yield” value with pure mAb1 [5] (100 μL mAb1 at 10 μM and 20 μM with 100 μL IFs) was 200 µM. In addition, the “mAb1 precipitation yield from clarified cell culture harvest” value in data set [6] (40 μM mAb1 CB) was “more than 86%”; in [6] (80 μM mAb1 CB), > 90%. This compound also gave a CMC in data set [7] of 10.5 µM.

For the compound “O36: ligand molecule C12-VVKK[Linker]Z33, linker OEG36”, the “diameter” value in data set [3] worked out at 18.5±1.8 nm. Moreover, in the data set with pure mAb1 [5] (20 μM mAb1, 2.5 mM filler, 100 μM ligand), the “yield discrepancy between 1M salt and no salt groups” value is “less than 10%”. Further, the “mAb precipitation yield, ranking among ligands” value with pure mAb1 [5] (all conditions (20 and 40 μM mAb1, 1 M salt or no salt)) was “best mAb precipitation yields in all conditions”. The compound also returned a CMC in [7] of 9.1 µM.

With “O12: ligand molecule C12-VVKK[Linker]Z33, linker OEG12”, the “diameter” value in data set [3] was found to be 13.6±1.2 nm. This compound also gave a CMC in [7] of 8.5 µM.

`CCCCCCCCCCCC(=O)N[C@H](C(=O)N[C@H](C(=O)N[C@@H](CCC(=O)O)C(=O)N[C@@H](CCC(=O)O)C(=O)O)C(C)C)C(C)C` [C12-VVEE] (Lauroyl-VVEE-OH; N-terminus and C-terminus assumed): in data set [8], the solubility (usually the dissolved amount per volume that the medium holds) was 2500 µM (≈ 1640 µg/mL).

On to “P2000: ligand molecule C12-VVKK[Linker]Z33, linker PEG2000”, for which, in data set [3], the “diameter” value is given as 19.3±2.0 nm. In addition, the CMC in [7] turned out to be 8.1 µM.
